From patent publication US20250042970A1 (AURINIA PHARMACEUTICALS, published 2025) come the findings set out here.

Like-named read-outs stand apart in the source and are kept apart here.

Common to all, as to experiment: BIACORE SPR
(In general: In SPR one partner is held on a chip, and binding of the other changes the refractive index at the surface.)

One test has as its target T1, Variant BAv3-10-Ig (human, UniProt P01859-1 99-326 = IgG part).
T1 construct: domain: Fc; also called Variant 3-10-Ig; BAv3-10-PIg18

The target of another test is T2, Variant BAv8-9-Ig (human, UniProt P01859-1 99-326 = IgG part).
T2 construct: domain: Fc; also called Variant 8-9-Ig; BAv8-9-PIg18

A further test has as its target T3, Variant BAv9-1-Ig (human, UniProt P01859-1 99-326 = IgG part).
T3 construct: domain: Fc; also called Variant 9-1-Ig; BAv9-1-pIg18

In another test the target is T4, Variant BAv1-12-Ig (human, UniProt P01859-1 99-326 = IgG part).
T4 construct: domain: Fc; also called Variant 1-12-Ig
T4 sequence (P01859 other isoform, or with tags, fused parts or gaps mutant limits assumed): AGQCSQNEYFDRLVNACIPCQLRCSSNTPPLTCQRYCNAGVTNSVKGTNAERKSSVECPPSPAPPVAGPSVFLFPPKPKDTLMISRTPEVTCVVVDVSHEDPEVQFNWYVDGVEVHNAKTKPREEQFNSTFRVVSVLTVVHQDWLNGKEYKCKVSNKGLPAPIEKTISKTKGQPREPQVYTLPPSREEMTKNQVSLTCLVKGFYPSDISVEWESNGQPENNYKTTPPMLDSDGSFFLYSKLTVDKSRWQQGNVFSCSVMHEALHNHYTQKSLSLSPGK

Test [1] deals with T5, Variant 50238475-Ig (human, UniProt P01859-1 99-326 = IgG part).
T5 construct: domain: Fc; also called Parent 9; Variant 50238475-PIg18
T5 sequence (P01859 other isoform, or with tags, fused parts or gaps mutant limits assumed): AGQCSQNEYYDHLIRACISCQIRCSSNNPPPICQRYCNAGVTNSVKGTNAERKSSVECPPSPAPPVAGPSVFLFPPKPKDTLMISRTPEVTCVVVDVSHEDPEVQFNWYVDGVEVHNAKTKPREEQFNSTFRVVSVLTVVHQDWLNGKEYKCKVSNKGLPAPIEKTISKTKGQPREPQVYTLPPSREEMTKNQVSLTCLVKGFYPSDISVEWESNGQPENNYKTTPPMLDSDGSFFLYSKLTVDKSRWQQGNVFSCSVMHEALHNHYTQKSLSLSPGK

Another test addresses T6, BAv66-Ig (human, UniProt P01859-1 99-326 = IgG part).
T6 construct: domain: Fc; also called Variant BAv66-Ig

Another test deals with T7, Variant BAv9-5-Ig (human, UniProt P01859-1 99-326 = IgG part).
T7 construct: domain: Fc; also called Variant 9-5-Ig; BAv9-5-PIg18
T7 sequence (P01859 other isoform, or with tags, fused parts or gaps mutant limits assumed): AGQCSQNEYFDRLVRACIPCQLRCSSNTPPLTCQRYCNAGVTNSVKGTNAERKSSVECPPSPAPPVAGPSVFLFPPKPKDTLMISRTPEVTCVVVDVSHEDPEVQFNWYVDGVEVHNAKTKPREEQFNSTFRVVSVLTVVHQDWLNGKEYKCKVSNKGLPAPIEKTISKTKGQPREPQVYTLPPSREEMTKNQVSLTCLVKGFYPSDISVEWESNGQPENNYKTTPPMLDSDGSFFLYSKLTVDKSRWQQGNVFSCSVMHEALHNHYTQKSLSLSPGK

The target of test [2] is T8, Variant BAv8-10-Ig (human, UniProt P01859-1 99-326 = IgG part).
T8 construct: domain: Fc; also called Variant 8-10-Ig; BAv8-10-PIg18
T8 sequence (P01859 other isoform, or with tags, fused parts or gaps mutant limits assumed): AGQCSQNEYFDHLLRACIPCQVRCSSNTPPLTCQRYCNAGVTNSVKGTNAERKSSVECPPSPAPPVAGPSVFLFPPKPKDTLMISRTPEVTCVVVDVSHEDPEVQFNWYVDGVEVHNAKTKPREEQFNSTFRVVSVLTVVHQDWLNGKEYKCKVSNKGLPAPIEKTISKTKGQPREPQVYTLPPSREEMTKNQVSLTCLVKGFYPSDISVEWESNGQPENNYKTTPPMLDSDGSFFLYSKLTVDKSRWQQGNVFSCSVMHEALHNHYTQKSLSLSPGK

Another test concerns the target T9, Variant BAv11-6-Ig (human, UniProt P01859-1 99-326 = IgG part).
T9 construct: domain: Fc; also called Variant 11-6-Ig; BAv11-6-PIg18

The target of the next test is T10, Variant 50237844-Ig (human, UniProt P01859-1 99-326 = IgG part).
T10 construct: domain: Fc; also called Parent 7
T10 sequence (P01859 other isoform, or with tags, fused parts or gaps mutant limits assumed): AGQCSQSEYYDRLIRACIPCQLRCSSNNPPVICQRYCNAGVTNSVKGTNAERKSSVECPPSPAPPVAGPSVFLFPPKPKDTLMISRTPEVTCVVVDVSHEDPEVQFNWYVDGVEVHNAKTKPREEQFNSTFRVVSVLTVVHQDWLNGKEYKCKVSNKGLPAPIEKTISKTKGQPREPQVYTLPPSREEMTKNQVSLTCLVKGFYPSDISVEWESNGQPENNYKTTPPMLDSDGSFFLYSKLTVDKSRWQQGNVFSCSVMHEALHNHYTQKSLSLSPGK
The procedure:
(§1) For human BAFF, cynomolgus monkey APRIL, and mouse APRIL measurements, mouse monoclonal antibody (IgG1) anti-FLAG M2 (Sigma Aldrich, Cat. No. F1804) was immobilized on CM3 sensor chips (GE Healthcare, Cat. No. BR-1005-41) according to the manufacturer's protocol. Antibody was diluted to 30 μg/ml in immobilization buffer (10 mM pH 5±0.20; GE Healthcare; GE Healthcare, Catalog No. BR-1003-51). […] Unreacted sites were quenched with 35 μl of 1M ethanolamine-HCl, pH 8.5 (GE Healthcare, GE Healthcare, Cat. No. BR-1000-50). This procedure typically yielded 3,000-4,000 response units (RU) of coupled antibody.
(§2) The fusion polypeptides were diluted in HBS-EP buffer and flowed over ligand-coated sensor chips. The variant BCMA-Ig and surrogate control fusion proteins were injected at three concentrations (1.5 nM, 15 nM, and 150 nM at 30 μl/min for 2 minutes per association phase) in a single binding cycle, followed by a 20 minute incubation with HBS-EP buffer containing no protein at the same flow rate. A similar protocol was followed for Z-TACI-Ig, except that the injections were at 4.5 nM, 45 nM, and 450 nM.
(§3) Sequence optimization involved generating revertants from the variant BCMA ECD-Ig molecules using standard site-directed mutagenesis methods such as by SOEing as described herein above. Single as well as multiple revertants from twelve different variant-BCMA-pIg18 were generated, cloned in the pcDNA3.1 vector (Life Technologies, as described in Example 6), expressed and purified as described in Examples 6-8. The resulting proteins were assayed for their binding characteristics using Surface Plasmon Resonance as described in Example 9.

A further test concerns the target T11, Variant 50237847-Ig (human, UniProt P01859-1 99-326 = IgG part).
T11 construct: domain: Fc; also called Parent 3
The protocol: as §1, §2, §3

Another test addresses T12, Variant 50238494-Ig (human, UniProt P01859-1 99-326 = IgG part).
T12 construct: domain: Fc; also called Parent 11
The procedure:
as §1, §2, §3

In a further test the target is T13, Variant 50234224-Ig (human, UniProt P01859-1 99-326 = IgG part).
T13 construct: domain: Fc; also called Parent 6
T13 sequence (P01859 other isoform, or with tags, fused parts or gaps mutant limits assumed): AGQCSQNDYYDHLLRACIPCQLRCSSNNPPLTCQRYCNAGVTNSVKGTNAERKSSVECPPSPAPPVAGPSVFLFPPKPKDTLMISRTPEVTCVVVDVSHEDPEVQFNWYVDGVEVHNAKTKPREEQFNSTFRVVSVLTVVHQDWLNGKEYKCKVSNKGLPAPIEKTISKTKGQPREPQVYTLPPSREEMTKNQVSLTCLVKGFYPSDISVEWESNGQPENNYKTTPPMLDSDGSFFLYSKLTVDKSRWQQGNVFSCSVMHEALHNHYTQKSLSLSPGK
The protocol:
as §1, §2, §3

The next test has as its target T14, Variant 50239040-Ig (human, UniProt P01859-1 99-326 = IgG part).
T14 construct: domain: Fc; also called Parent 10
The procedure: as §1, §2, §3

In another test the target is T15, Variant 50237854-Ig (human, UniProt P01859-1 99-326 = IgG part).
T15 construct: domain: Fc; also called Parent 4
T15 sequence (P01859 other isoform, or with tags, fused parts or gaps mutant limits assumed): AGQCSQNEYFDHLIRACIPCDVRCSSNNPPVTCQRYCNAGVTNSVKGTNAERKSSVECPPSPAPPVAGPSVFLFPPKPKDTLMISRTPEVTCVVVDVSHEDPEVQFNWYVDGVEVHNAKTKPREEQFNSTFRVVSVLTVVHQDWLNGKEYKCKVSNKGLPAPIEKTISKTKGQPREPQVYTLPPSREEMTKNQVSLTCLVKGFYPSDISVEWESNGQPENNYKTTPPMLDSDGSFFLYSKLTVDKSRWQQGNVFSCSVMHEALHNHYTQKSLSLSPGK
The procedure: as §1, §2, §3

In test [3] the target is T5, Variant 50238475-Ig. The procedure: as §1, §2, §3
This is another data set of the same source.

A further test deals with T16, Variant 50239978-Ig (human, UniProt P01859-1 99-326 = IgG part).
T16 construct: domain: Fc; also called Parent 12
T16 sequence (P01859 other isoform, or with tags, fused parts or gaps mutant limits assumed): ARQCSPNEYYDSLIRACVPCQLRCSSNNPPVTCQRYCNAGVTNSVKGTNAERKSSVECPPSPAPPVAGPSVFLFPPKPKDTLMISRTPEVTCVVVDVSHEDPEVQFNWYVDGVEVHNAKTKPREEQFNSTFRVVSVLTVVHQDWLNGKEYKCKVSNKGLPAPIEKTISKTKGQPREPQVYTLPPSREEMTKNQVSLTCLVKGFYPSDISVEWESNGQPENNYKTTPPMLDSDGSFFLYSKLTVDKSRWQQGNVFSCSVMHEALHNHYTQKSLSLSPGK
The procedure: as §1, §2, §3

Another test concerns the target T17, Variant 50240054-Ig (human, UniProt P01859-1 99-326 = IgG part).
T17 construct: domain: Fc; also called Parent 2
The procedure: as §1, §2, §3

The target in another test is T18, Variant 50239698-Ig (human, UniProt P01859-1 99-326 = IgG part).
T18 construct: domain: Fc; also called Parent 5
The protocol:
as §1, §2, §3

For a further test, the target named is T19, Variant 50238779-Ig (human, UniProt P01859-1 99-326 = IgG part).
T19 construct: domain: Fc; also called Parent 1
T19 sequence (P01859 other isoform, or with tags, fused parts or gaps mutant limits assumed): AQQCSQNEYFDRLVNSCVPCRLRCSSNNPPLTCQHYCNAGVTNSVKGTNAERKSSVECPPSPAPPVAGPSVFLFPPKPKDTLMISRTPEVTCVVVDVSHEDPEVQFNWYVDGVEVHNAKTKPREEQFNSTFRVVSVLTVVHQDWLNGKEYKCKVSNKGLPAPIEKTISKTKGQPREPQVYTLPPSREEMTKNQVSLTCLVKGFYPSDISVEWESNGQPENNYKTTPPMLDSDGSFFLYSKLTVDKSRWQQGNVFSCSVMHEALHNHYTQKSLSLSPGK
The procedure:
as §1, §2, §3

A further test has as its target T20, Variant 50238504R-Ig (human, UniProt P01859-1 99-326 = IgG part).
T20 construct: domain: Fc; also called Parent 8
The procedure: as §1, §2, §3

For test [4], the target named is T8, Variant BAv8-10-Ig. The procedure:
as §1, §2
Using available information from the structures and published literature, several residues in BAv8-10 were targeted for substitution with conserved as well as non-conserved residues and their effect on BAFF and APRIL binding was assessed by BIACORE.
The source holds these as a separate data set.

T20 sequence (P01859 other isoform, or with tags, fused parts or gaps mutant limits assumed): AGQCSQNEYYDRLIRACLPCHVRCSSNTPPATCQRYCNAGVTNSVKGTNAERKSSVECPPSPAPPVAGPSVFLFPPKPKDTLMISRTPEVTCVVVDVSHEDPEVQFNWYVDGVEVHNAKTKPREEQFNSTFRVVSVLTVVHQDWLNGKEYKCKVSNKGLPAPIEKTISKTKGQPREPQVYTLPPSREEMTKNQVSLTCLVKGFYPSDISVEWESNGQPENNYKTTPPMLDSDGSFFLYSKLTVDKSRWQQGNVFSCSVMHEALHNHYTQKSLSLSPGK
T3 sequence (P01859 other isoform, or with tags, fused parts or gaps mutant limits assumed): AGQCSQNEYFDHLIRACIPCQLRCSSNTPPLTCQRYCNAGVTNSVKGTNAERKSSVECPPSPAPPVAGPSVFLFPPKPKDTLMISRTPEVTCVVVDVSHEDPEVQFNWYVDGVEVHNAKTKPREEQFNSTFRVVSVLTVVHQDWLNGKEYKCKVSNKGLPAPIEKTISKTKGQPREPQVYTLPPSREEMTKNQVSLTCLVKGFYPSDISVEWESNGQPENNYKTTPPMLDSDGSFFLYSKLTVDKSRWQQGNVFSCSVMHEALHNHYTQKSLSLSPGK
T6 sequence (P01859 other isoform, or with tags, fused parts or gaps limits assumed): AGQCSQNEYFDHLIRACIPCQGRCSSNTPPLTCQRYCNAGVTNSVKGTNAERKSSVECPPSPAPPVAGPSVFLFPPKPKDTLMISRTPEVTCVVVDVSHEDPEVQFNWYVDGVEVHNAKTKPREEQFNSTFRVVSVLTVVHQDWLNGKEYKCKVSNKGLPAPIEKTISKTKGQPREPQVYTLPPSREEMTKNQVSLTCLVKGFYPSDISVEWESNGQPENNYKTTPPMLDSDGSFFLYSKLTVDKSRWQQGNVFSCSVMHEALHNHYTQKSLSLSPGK
T11 sequence (P01859 other isoform, or with tags, fused parts or gaps mutant limits assumed): as the sequence (P01859 other isoform, or with tags, fused parts or gaps limits assumed) above, with F10Y, I14L, I18V, P19S, Q21H, G22V, T28N, L31A, T32I counted along it
T1 sequence (P01859 other isoform, or with tags, fused parts or gaps mutant limits assumed): as the sequence (P01859 other isoform, or with tags, fused parts or gaps limits assumed) above, with H12R, G22L counted along it
T12 sequence (P01859 other isoform, or with tags, fused parts or gaps mutant limits assumed): as the sequence (P01859 other isoform, or with tags, fused parts or gaps limits assumed) above, with N7S, F10Y, H12R, R15H, I18V, G22L, T28N, L31A counted along it
T14 sequence (P01859 other isoform, or with tags, fused parts or gaps mutant limits assumed): as the sequence (P01859 other isoform, or with tags, fused parts or gaps limits assumed) above, with G2R, Q6P, N7S, F10Y, A16S, I18V, G22L, L31V, N38D counted along it
T9 sequence (P01859 other isoform, or with tags, fused parts or gaps mutant limits assumed): as the sequence (P01859 other isoform, or with tags, fused parts or gaps limits assumed) above, with H12R, I14L, G22V counted along it

B1: FLAG-tagged cynomolgous APRIL (ligand, not shown: small tags and cut ends)
chain: KQKKQHSVLHLVPINATSKDDSDVTEVMWQPALRRGRGLQAQGYGVRIRDAGVYLLYSQVLFQDVTFTMGQVVSREGQGKQETLFRCIRSMPSHPDRAYNSCYSAGVFHLHQGDILSVIIPRARAKLNLSPHGTFLGFVKL
notes: FLAG-tagged, expressed with TPA signal peptide; also called cyAPRIL
As a reminder, the Kd is the constant that tells how readily two partners part at equilibrium. Regarding B1, the Kd worked out at 0.0139 nM with Variant BAv3-10-Ig; 0.0226 nM in the test with Variant BAv8-9-Ig; 0.0214 nM with Variant BAv9-1-Ig; 0.0101 nM in the test with Variant BAv1-12-Ig; 0.0789 nM with Variant 50238475-Ig [1]; 62.6 nM with BAv66-Ig. Moreover, the Kd is 0.0284 nM with Variant BAv9-5-Ig; 0.0539 nM with Variant BAv8-10-Ig [2]; 0.0244 nM with Variant BAv11-6-Ig; 0.028 nM in the test with Variant 50237844-Ig; 0.037 nM in the test with Variant 50237847-Ig; 0.012 nM with Variant 50238494-Ig. The Kd was found to be 0.039 nM with Variant 50234224-Ig; 0.054 nM with Variant 50239040-Ig; 0.059 nM with Variant 50237854-Ig; 0.042 nM in the test with Variant 50238475-Ig [3]; 0.024 nM in the test with Variant 50239978-Ig; 0.023 nM in the test with Variant 50240054-Ig. The dissociation constant Kd is 0.017 nM in the test with Variant 50239698-Ig, 0.028 nM with Variant 50238779-Ig, 0.072 nM with Variant 50238504R-Ig and 0.076 nM with Variant BAv8-10-Ig [4].
